Patent US20180282430A1 (Bayer, published 2018)
Changes are numbered by the printed parent chain. In names and notes the source's numbering stands.

T1: Human TFPI (tissue factor pathway inhibitor) (human, UniProt P10646 29-304, limits assumed)
T1 construct: Coated at 1 ug/ml on Maxisorb plates for the ELISA; For the Biacore work the human TFPI came from American Diagnostica
T1 sequence (looked up): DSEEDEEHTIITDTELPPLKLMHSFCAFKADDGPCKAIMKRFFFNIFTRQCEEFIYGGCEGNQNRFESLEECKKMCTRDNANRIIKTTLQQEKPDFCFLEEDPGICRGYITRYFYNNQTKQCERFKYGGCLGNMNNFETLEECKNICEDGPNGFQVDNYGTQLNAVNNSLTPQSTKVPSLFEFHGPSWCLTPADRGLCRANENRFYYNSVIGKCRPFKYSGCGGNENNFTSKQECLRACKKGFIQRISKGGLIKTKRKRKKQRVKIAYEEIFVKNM

B1: 2A8-g200 Fab (wild type) (Fab, V domains shown)
VH: EVQLVESGGGLVQPGGSLRLSCAASGFTFSSYGMDWVRQAPGKGLEWVSSIRGSRGSTYYADSVKGRFTISRDNSKNTLYLQMNSLRAEDTAVYYCARLYRYWFDYWGQGTLVTVSS
VL: SYELTQPPSVSVSPGQTARITCSGDNLPKYYAHWYQQKPGQAPVVVIFYDVNRPSGIPERFSGSNSGNTATLTISGTQAMDEADYYCQAWWSSTPVFGGGTKLTVLG
notes: Fab format, expressed in E. coli; also called wt gA200Fab; wild type 2A8-g200 Fab
B2: 2A8-g200 Fab VL-W90H (Fab, V domains shown)
VH: B1 VH
VL: B1 VL with W90H
notes: Member of the 2A8-g200 Fab histidine scanning library
B3: 2A8-g200 Fab VL-Y49H (Fab, V domains shown)
VH: B1 VH
VL: B1 VL with Y49H
notes: as for B2
B4: 2A8-g200 Fab VL-L27H (Fab, V domains shown)
VH: B1 VH
VL: B1 VL with L27H
notes: as for B2
B5: 2A8-g200 Fab VL-F48H (Fab, V domains shown)
VH: B1 VH
VL: B1 VL with F48H
notes: as for B2
B6: 2A8-g200 Fab VL-Y31H (Fab, V domains shown)
VH: B1 VH
VL: B1 VL with Y31H
notes: as for B2
B7: 2A8-g200 Fab VH-Y32H (Fab, V domains shown)
VH: B1 VH with Y32H
VL: B1 VL
notes: as for B2
B8: 2A8-g200 Fab VL-V45H (Fab, V domains shown)
VH: B1 VH
VL: B1 VL with V45H
notes: as for B2
B9: 2A8-g200 Fab VH-S50H (Fab, V domains shown)
VH: B1 VH with S50H
VL: B1 VL
B10: 2A8-g200 Fab VH-Y100H (Fab, V domains shown)
VH: B1 VH with Y100H
VL: B1 VL
notes: as for B2
B11: 2A8-g200 Fab VH-Y102H (Fab, V domains shown)
VH: B1 VH with Y102H
VL: B1 VL
notes: as for B2

Molecular target: T1, Human TFPI (tissue factor pathway …)
Assay: ELISA on plate-coated human TFPI; Fab expression media bound, then 1 h at 37 C in PBS pH 7.0; amplex red
Procedure: (§1) Human TFPI, 1 μg/ml, was used to coat Maxisorb™ microtiter plates. Expression media, 100 μl, from each member of the His scan library, was added to two wells on the plate, in a pair wise fashion. The plate was incubated on a shaker at room temperature for 1 hr. The plate was washed 3× with PBST. PBS (pH 7.0) was added to one well of the pair, 100 mM pH6.0 Citrate buffer was added to the second well of the same pair. The plate was incubated at 37° C. with shaking for one hr. The plate was washed 3× with PBST and developed using amplex red. A pH 7.0/pH 6.0 ratio was established to rank the sensitive muteins. The ratio for wild type 2A8-g200 Fab was 1.0.

Row | Binder | TFPI ELISA signal, pH 7.0
1 | B1 | 5250
2 | B2 | 1830
3 | B3 | 2660
4 | B4 | 3420
5 | B5 | 2070
6 | B6 | 913
7 | B7 | 3560
8 | B8 | 2200
9 | B9 | 2160
10 | B10 | 2540
11 | B11 | 3310

Molecular target: T1, Human TFPI (tissue factor pathway …)
Assay: SPR (Biacore T200): human TFPI amine-coupled on a CM4 or CM5 chip, Fab variant injected, dissociation followed in pH 7.4 or pH 6.0 buffer
Procedure: Purified 2A8-g200 variants in Fab format (referred to as wt gA200Fab in Table 1) were tested using surface plasmon resonance (Biacore). Surface plasmon resonance (Biacore T200) was used to measure the dissociation rate of the antibodies. […] Purified 2A8-g200 variants were injected, following by 40-minute dissociation either at pH7.4 or pH6.0 buffer. The antibodies were diluted in HBS-P buffer at different concentrations and the flow rate was set to 50 μl/min. After each round of antibody injection, the chip was regenerated by injecting 90 μl of pH 1.5 glycine. The data set was evaluated using BIAevaluation Software.
The dissociation constant (kd) for each 2A8-g200 variant antibody was determined by using a model with the following equation: […]
where R is the response at time t, R₀ is the response at time t_{0.}—the start of dissociation, offset allows for a residual response at the end of complete dissociation. A ratio of kd at pH 6.0 to kd at pH 7.4 was calculated for each 2A8-g200 variant. A mutation with observed ratio of […] was considered as pH-sensitive mutation and could be used for construction of IgG variants of 2A8-g200.

Row | Binder | fold (x) printed after the variant's name; the sheet does not name it, paragraph 57 speaks of the ratio of kd at pH 6.0 to kd at pH 7.4 [x]
12 | B4 | 2.7
13 | B6 | 3.2

Molecular target: T1, Human TFPI (tissue factor pathway …)
Assay: pH 6.0 TFPI dissociation ELISA; ratio of the signals at pH 7.0 and pH 6.0
Procedure: as §1

Row | Binder | Ratio pH 7.0/pH 6.0
14 | B1 | 0.98
15 | B2 | 1.21
16 | B3 | 1.3
17 | B4 | 1.3
18 | B5 | 1.33
19 | B6 | 6.84
20 | B7 | 1.38
21 | B8 | 1.24
22 | B9 | 1.32
23 | B10 | 1.78
24 | B11 | 3.07

Molecular target: T1, Human TFPI (tissue factor pathway …)
Assay: ELISA on plate-coated human TFPI; Fab expression media bound, then 1 h at 37 C in 100 mM citrate pH 6.0; amplex red
Procedure: as §1

Row | Binder | TFPI ELISA signal, pH 6.0
25 | B1 | 5350
26 | B2 | 1510
27 | B3 | 2040
28 | B4 | 2640
29 | B5 | 1550
30 | B6 | 133
31 | B7 | 2580
32 | B8 | 1770
33 | B9 | 1640
34 | B10 | 1430
35 | B11 | 1080
